Test results taken from article PMC11771145 (Nature, 2024).

Biological target: the molecule itself
Test: cryo-EM, 2D class averages

B1: Vitiosangium bGSDM, engineered with a thrombin site and cleaved by thrombin (active N-terminal pore-forming domain) (domain or fragment, Vitiosangium sp. GDMCC 1.1324)
chain: SGLCSDPAITYLKRLGYNVVRLPREGIQPLHLLGQQRGTVEYLGSLEKLITQPPSEPPAITRDQAAAGINGQKTENLSFSIGINILKSVLAQFGAGAGIEAQYNQARKVRFEFSNVLADSVEPLAVGQFLKMAEVDADNPVLKQYVLGNGRLYVITQVIKSNEFTVAAEKSGGGSIQLDVPEIQKVVGGKLKVEASVSSQSTVTYKGEKQLVFGFKCFEIGVKNGEITLFASQLVPR
stoichiometry N: 48 to 54 protomers
